In patent publication US20170081379A1 one finds Kd and EC50 (read off the curve) data, which are given here for four molecules.

Bridge positions count the residues as written; N and C are the ends. Square brackets hold non-standard residues; d marks the D form. Ends that are not written are not given here. R8 = C=CCCCCCC[C@@](C)(N)C(=O)O; S5 = C=CCCC[C@](C)(N)C(=O)O

A word on the Kd: it is the free concentration of one partner at which half of the binding sites on the other are occupied at equilibrium, for simple one-to-one binding. The term EC50 (read off the curve) denotes the concentration giving half of the maximal effect.

The target in assay [1] is recombinant HDM2 17-125 (human) (UniProt Q00987). The assay can be described thus: fluorescence polarization, FITC-labeled peptide with HDM2 17-125.
recombinant HDM2 17-125 (human), sequence (Q00987 17-125 limits assumed): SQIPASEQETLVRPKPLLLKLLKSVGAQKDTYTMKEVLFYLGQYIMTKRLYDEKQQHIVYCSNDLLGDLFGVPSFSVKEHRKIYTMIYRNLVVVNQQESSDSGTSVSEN
For assay [2] the target is unchanged. The assay is described as follows: fluorescence polarization, FITC-peptide with titrated HDM2 17-125; the concentration is that of hDM2.

B1: FITC-SAH-p53-4 (peptide, from a related filing)
peptide: LSQETF[R8]DLWKLL[S5]EN-NH2
modifications: staple 7-14; not fully specified (N-terminus)
For B1, the Kd in assay [1] stood at 920 pM.

B2: FITC-SAH-p53-6 (peptide, from a related filing)
peptide: LSQQTF[R8]NLWRLL[S5]QN-NH2
modifications: staple 7-14; not fully specified (N-terminus)
B2: the equilibrium dissociation constant (Kd) in assay [1] worked out at 56000 pM.

B3: FITC-SAH-p53-5 (peptide, from a related filing)
peptide: LSQETF[R8]NLWKLL[S5]QN-NH2
modifications: staple 7-14; not fully specified (N-terminus)
Regarding B3, the Kd in assay [1] is 800 pM. For the same molecule, the EC50 (read off the curve) in assay [2] turned out to be 800 pM.

B4: FITC-SAH-p53-7 (peptide, from a related filing)
peptide: QSQQTF[R8]NLWKLL[S5]QN-NH2
modifications: staple 7-14; not fully specified (N-terminus)
B4: in assay [1], the dissociation constant Kd stood at 50000 pM.
